{"source": "patent US20210393741A1", "target": "CD91 on macrophages (mouse (C57BL/6 mice)) (UniProt Q91ZX7)", "sequence (Q91ZX7 20-4545)": "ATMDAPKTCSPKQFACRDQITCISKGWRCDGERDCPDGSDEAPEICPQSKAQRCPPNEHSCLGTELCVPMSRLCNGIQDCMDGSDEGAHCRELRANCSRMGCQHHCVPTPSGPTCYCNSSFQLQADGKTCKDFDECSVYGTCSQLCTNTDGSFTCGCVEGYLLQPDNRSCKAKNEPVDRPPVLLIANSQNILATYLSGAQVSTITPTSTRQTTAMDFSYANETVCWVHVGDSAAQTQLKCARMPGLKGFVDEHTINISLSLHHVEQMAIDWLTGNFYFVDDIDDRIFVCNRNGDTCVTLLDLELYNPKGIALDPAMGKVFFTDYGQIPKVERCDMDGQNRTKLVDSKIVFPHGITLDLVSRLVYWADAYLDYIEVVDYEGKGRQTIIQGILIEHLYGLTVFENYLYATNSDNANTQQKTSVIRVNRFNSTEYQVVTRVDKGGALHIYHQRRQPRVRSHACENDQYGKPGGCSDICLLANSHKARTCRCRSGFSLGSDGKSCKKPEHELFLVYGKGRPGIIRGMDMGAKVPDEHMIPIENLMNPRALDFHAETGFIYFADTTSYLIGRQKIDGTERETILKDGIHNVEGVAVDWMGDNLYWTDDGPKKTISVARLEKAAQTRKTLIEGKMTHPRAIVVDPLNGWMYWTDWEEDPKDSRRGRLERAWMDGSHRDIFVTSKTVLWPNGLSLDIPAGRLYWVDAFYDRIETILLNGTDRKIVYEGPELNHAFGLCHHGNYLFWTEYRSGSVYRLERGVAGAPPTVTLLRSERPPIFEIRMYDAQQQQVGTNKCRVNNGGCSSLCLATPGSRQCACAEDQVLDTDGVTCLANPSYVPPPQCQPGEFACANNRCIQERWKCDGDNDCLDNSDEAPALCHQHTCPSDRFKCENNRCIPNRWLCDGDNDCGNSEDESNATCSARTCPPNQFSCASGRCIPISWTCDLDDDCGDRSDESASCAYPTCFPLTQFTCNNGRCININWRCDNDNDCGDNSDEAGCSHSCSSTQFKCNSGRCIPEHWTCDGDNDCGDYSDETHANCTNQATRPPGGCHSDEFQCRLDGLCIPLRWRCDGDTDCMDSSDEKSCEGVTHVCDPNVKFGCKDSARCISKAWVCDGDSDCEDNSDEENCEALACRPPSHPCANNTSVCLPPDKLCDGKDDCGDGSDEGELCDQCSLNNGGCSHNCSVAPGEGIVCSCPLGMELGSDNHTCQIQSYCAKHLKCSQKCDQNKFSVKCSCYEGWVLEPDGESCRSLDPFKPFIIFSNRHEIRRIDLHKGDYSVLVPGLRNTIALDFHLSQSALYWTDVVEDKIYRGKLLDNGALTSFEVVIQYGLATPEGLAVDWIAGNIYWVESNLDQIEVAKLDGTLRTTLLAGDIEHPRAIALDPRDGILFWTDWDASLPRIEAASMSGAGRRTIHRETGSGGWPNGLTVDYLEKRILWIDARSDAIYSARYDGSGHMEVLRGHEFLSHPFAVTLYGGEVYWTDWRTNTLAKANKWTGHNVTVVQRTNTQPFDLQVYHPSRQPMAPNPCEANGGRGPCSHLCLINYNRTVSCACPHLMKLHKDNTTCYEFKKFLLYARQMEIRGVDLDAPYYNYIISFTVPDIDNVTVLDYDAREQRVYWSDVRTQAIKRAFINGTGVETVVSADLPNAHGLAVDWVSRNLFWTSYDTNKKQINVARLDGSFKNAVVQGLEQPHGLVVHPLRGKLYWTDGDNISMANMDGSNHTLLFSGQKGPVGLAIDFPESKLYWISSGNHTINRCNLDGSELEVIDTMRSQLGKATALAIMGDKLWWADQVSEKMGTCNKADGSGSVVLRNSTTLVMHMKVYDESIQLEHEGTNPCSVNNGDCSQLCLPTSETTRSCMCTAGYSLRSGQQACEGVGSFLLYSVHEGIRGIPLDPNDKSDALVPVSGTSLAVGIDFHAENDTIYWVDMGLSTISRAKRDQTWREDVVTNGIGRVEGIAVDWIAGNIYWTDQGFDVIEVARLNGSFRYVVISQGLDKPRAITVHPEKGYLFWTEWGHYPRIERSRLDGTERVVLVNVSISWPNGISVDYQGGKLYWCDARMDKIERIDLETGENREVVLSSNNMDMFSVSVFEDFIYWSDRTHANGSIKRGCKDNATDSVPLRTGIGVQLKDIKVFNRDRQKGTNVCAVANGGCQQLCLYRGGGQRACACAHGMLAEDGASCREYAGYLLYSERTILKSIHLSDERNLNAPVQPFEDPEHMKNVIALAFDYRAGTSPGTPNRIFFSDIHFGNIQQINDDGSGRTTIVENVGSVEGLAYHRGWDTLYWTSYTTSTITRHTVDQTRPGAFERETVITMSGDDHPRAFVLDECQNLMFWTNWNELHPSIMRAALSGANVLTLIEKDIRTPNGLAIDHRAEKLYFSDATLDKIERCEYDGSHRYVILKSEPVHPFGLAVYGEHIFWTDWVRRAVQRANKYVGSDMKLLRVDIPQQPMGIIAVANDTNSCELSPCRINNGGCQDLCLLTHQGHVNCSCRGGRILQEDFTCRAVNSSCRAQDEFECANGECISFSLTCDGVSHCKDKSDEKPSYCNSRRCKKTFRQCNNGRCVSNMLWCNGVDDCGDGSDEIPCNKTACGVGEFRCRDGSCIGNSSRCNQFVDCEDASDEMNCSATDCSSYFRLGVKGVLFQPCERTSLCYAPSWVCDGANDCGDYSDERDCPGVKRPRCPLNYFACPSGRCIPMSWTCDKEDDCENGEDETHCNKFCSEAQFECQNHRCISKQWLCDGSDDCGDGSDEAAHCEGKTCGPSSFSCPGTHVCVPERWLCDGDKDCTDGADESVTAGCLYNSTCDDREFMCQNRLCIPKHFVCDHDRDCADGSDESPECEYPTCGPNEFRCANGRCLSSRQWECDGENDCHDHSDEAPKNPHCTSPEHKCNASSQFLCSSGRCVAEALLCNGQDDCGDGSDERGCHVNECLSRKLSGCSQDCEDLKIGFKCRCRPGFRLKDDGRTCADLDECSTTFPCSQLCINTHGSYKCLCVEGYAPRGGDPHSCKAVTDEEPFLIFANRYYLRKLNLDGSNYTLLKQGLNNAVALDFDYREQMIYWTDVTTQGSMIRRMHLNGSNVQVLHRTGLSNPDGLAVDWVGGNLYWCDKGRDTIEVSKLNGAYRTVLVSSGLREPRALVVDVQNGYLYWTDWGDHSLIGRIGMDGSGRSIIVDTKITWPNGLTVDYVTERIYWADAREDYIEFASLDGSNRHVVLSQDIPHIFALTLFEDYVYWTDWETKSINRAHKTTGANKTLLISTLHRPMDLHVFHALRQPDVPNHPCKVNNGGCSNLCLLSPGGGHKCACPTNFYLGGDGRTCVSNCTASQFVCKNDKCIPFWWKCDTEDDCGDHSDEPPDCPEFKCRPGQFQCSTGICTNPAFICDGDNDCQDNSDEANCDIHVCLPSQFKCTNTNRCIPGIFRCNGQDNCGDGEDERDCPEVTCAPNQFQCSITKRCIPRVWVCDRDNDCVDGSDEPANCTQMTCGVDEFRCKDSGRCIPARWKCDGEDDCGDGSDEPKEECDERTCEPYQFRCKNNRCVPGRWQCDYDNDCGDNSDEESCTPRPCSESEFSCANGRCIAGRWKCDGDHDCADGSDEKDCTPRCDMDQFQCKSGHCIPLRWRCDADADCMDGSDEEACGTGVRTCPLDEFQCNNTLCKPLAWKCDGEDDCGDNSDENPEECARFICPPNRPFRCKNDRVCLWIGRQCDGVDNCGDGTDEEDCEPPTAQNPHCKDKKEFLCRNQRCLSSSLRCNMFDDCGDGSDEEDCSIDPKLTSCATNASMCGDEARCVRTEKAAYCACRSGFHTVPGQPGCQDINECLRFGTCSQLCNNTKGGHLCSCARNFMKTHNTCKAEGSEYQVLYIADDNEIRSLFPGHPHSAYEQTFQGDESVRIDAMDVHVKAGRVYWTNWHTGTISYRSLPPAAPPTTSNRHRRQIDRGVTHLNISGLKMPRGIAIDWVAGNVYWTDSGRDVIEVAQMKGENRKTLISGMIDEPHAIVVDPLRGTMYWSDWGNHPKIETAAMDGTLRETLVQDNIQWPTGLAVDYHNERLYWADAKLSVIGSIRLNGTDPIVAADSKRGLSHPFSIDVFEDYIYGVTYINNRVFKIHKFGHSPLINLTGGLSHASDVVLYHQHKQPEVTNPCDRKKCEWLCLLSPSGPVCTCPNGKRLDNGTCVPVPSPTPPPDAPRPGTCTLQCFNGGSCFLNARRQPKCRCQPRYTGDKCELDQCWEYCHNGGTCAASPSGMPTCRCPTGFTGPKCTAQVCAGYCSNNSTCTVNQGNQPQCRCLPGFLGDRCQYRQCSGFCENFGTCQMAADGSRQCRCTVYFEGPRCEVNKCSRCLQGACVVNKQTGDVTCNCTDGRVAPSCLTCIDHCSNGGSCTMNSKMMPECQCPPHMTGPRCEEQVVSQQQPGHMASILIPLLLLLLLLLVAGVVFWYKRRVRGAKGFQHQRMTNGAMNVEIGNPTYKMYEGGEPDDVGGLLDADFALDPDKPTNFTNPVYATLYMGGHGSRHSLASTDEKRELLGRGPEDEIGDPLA", "experiment": "cell-based or functional assay"}
{"substance": "calreticulin (CRT), recombinant (ligand)", "values": [{"measurement": "IFN alpha MFI (Fold Change), RAW264.7 macrophage (M1) cells pulsed with calreticulin 10 ug/ml for 20 min, FACS", "result": 7.5, "unit": "fold change"}, {"measurement": "IFN beta MFI (Fold Change), RAW264.7 macrophage (M1) cells pulsed with calreticulin 10 ug/ml for 20 min, FACS", "result": 7, "unit": "fold change"}, {"measurement": "IL-12 MFI (Fold Change), RAW264.7 macrophage (M1) cells pulsed with calreticulin 10 ug/ml for 20 min, FACS", "result": 3.5, "unit": "fold change"}, {"measurement": "IL-15 MFI (Fold Change), RAW264.7 macrophage (M1) cells pulsed with calreticulin 10 ug/ml for 20 min, FACS", "result": 3.5, "unit": "fold change"}]}
